Measurements from US20080221057A1, “SECRETED PROTEIN CCDC80 REGULATES ADIPOCYTE DIFFERENTIATION” (Wyeth, priority 2007, published 2008).

Assays:
Type in all cases: cell-based, mouse
[1] = system: Ccdc80 mRNA; experiment: Ccdc80 mRNA expression in growth-arrested 3T3-L1 cells treated with adipogenic inducers, real-time PCR; details: growth-arrested 3T3-L1 cells treated with one or more adipogenic inducers for 96 hr
Experimental: RNA from undifferentiated and differentiated 3T3-L1 adipocytes, tissues from normal, 8- to 12-week-old male C57BL/6J mice, as well as tissues from 10-week-old male ob/ob and age-matched wild-type control mice, was obtained as described (Lake et al., J. Lipid Res 46:2477-2487, 2005). For thiazolidinedione (TZD) treatment, 10-week-old male ob/ob mice were gavaged once per day with 15 mg/kg rosiglitazone or vehicle for 21 days. Primary adipocytes and stromal vascular fraction were prepared from the epididymal adipose tissue of 8- to 12-week-old male C57BL/6J mice as described (Lake et al., J. Lipid Res 46:2477-2487, 2005). Total RNA was extracted using Trizol (Invitrogen) and purified using the RNeasy kit (Qiagen). RNA from human tissues was obtained from Clontech (Mountain View, Calif.). […] Biol. Chem. 281:27167-27177, 2006). Gene expression was also measured by real-time PCR. (n=3-6 mice per group)*p<0.05. Taqman real-time quantitative PCR was performed on a 7900HT fast real-time PCR system (Applied Biosystems) according to the manufacturer's instructions using 18S as an endogenous control as described before (Lake et al., J. Lipid Res 46:2477-2487, 2005). Pre-designed gene-specific primers and probes were obtained from Applied Biosystems. […] Neutral lipid accumulation in formalin-fixed adipocytes was determined by oil red O staining according to methods well known in the art.

[2] = system: 3T3-L1 cells; experiment: 3T3-L1 adipocyte differentiation, lipid accumulation by oil red O staining; details: data not shown
Experimental: 3T3-L1 cells were maintained in DMEM containing 20% calf serum in an atmosphere of 10% CO2 at 37° C. Two days post-confluence, cells were induced to differentiate into adipocyte using DMEM containing 10% FBS supplemented with 500 μM 3-isobutyl-1-methylxanthine, 1 μM dexamethasone and 1.7 μM insulin for 4 days, followed by DMEM containing 10% FBS and 0.85 μM insulin for 2 days, then DMEM containing only 10% FBS for an additional 2-4 days. Neutral lipid accumulation in formalin-fixed adipocytes was determined by oil red O staining according to methods well known in the art.

[3] = system: Ccdc80 mRNA; experiment: Silencing of Ccdc80 by RNA interference in stable 3T3-L1 cell lines, Ccdc80 mRNA by real-time PCR; details: stable 3T3-L1 line, vs non-silencing shRNA
Experimental: RNA from undifferentiated and differentiated 3T3-L1 adipocytes, tissues from normal, 8- to 12-week-old male C57BL/6J mice, as well as tissues from 10-week-old male ob/ob and age-matched wild-type control mice, was obtained as described (Lake et al., J. Lipid Res 46:2477-2487, 2005). For thiazolidinedione (TZD) treatment, 10-week-old male ob/ob mice were gavaged once per day with 15 mg/kg rosiglitazone or vehicle for 21 days. Primary adipocytes and stromal vascular fraction were prepared from the epididymal adipose tissue of 8- to 12-week-old male C57BL/6J mice as described (Lake et al., J. Lipid Res 46:2477-2487, 2005). Total RNA was extracted using Trizol (Invitrogen) and purified using the RNeasy kit (Qiagen). RNA from human tissues was obtained from Clontech (Mountain View, Calif.). Gene expression profiling was performed using the Mouse Genome 430 2.0 array (Affymetrix) as previously described (Berasi et al., J. Biol. Chem. 281:27167-27177, 2006). Gene expression was also measured by real-time PCR. (n=3-6 mice per group)*p<0.05. Taqman real-time quantitative PCR was performed on a 7900HT fast real-time PCR system (Applied Biosystems) according to the manufacturer's instructions using 18S as an endogenous control as described before (Lake et al., J. Lipid Res 46:2477-2487, 2005). Pre-designed gene-specific primers and probes were obtained from Applied Biosystems. […]

[4] = system: 3T3-L1 cells; experiment: mRNA expression of genes involved in adipogenesis, metabolism and signaling in 3T3-L1 cells (microarray, real-time PCR)
Experimental: (§1) RNA from undifferentiated and differentiated 3T3-L1 adipocytes, tissues from normal, 8- to 12-week-old male C57BL/6J mice, as well as tissues from 10-week-old male ob/ob and age-matched wild-type control mice, was obtained as described (Lake et al., J. Lipid Res 46:2477-2487, 2005). For thiazolidinedione (TZD) treatment, 10-week-old male ob/ob mice were gavaged once per day with 15 mg/kg rosiglitazone or vehicle for 21 days. Primary adipocytes and stromal vascular fraction were prepared from the epididymal adipose tissue of 8- to 12-week-old male C57BL/6J mice as described (Lake et al., J. Lipid Res 46:2477-2487, 2005). Total RNA was extracted using Trizol (Invitrogen) and purified using the RNeasy kit (Qiagen). RNA from human tissues was obtained from Clontech (Mountain View, Calif.). Gene expression profiling was performed using the Mouse Genome 430 2.0 array (Affymetrix) as previously described (Berasi et al., J. Biol. Chem. 281:27167-27177, 2006). Gene expression was also measured by real-time PCR. (n=3-6 mice per group)*p<0.05. Taqman real-time quantitative PCR was performed on a 7900HT fast real-time PCR system (Applied Biosystems) according to the manufacturer's instructions using 18S as an endogenous control as described before (Lake et al., J. Lipid Res 46:2477-2487, 2005). Pre-designed gene-specific primers and probes were obtained from Applied Biosystems. Data shown in FIGS. 1A-E and 1G, FIG. 3 B-D, FIG. 4D, FIG. 5A, C, D, FIG. 6, and FIG. 7A are obtained by real-time PCR; data shown in FIG. 1F, and FIG. 4C are derived from microarray analysis.

[5] = system: Ccdc80; experiment: Secretion of Ccdc80 from 3T3-L1 cells, western blot of conditioned medium; details: growth-arrested and terminally differentiated 3T3-L1, vs non-silencing shRNA
Experimental: The Ccdc80-FLAG containing expression vector (pSMED2-Ccdc80-FLAG), as well as a control vector (pSMED2) were transfected into HEK293 T cells. In particular, HEK293T were seeded at a density of 2×10^6 cells in 10-cm Petri dishes. Cells were transfected with pSmed2 or pSmed2-Ccdc80-FLAG using Fugene6 (Roche). Two days after transfection, cells were placed in serum-free DMEM and medium was collected 24 hr later. Endogenous secretion of Ccdc80 was evaluated in 3T3-L1 preadipocytes and fully differentiated adipocytes. 3T3-L1 cells were rinsed twice with PBS and incubated in serum-free DMEM for 48 hrs before medium was collected. Conditioned media were analyzed by 4-10% SDS-PAGE followed by silver staining or immunological detection with anti-FLAG M2 (293T) or anti-Ccdc80 (3T3-L1) antibodies.

[6] = system: TCF-mediated transcriptional activity; experiment: TOPFLASH luciferase reporter assay in 3T3-L1 cells; details: vs non-silencing shRNA
Experimental: HepG2 cells were seeded at a density of 8×10^4 cells per well in 24-well plates and grown for 24 hr in antibiotic-free DMEM containing 10% FBS. Cells were transfected with 0.8 μg TOPFLASH and 0.2 μg β-galactosidase reporter plasmids using Lipofectamine 2000 (Invitrogen), rinsed with PBS 4 hr later and infected with adenovirus encoding either GFP or Ccdc80 in opti-MEM. Serum (final concentration: 10% FBS) was added to each well 2 hr after infection and cells were collected 24 hr later. 3T3-L1 cells were seeded at a density of 2.5×10^5 cells per well in 24-well plates. Cells were transfected with 1 μg TOPFLASH and 0.2 μg β-galactosidase reporter plasmids using Fugene 6 and grown in DMEM containing 20% calf serum until 2 days post-confluency. Cells were collected prior to and 24, 48 and 96 hr after induction of differentiation with insulin, 3-isobutyl-1-methylxanthine and dexamethasone as described above. Luciferase and β-galactosidase activities were measured according to manufacturer's instructions (Promega). Luciferase value was normalized to β-galactosidase activity.

[7] = system: Wnt/β-catenin signaling pathway; experiment: Wnt/β-catenin pathway gene expression in 3T3-L1 cells, real-time PCR low-density array
Experimental: as §1

[8] = system: Akt and ERK; experiment: Insulin stimulation and immunoblot analysis of Akt and ERK phosphorylation in 3T3-L1 cells; details: Ccdc80-KD cells
Experimental: Differentiated 3T3-L1 adipocytes were deprived of serum for 2 hr before stimulation with 10 nM insulin for 10 min. Cells were rinsed twice in ice-cold PBS and lysed as previously described (Tremblay and Marette, J. Biol. Chem. 276:38052-38060, 2001). Equal amounts of proteins were separated on 4-12% SDS-PAGE and transferred to nitrocellulose membranes. Phosphorylation of Akt (Ser473) and ERK-½ (Thr202/Tyr204) was determined using phospho-specific antibodies (Cell Signaling Technologies).

[9] = system: 3T3-L1 cells; experiment: Proliferation of 3T3-L1 pre-adipocytes; details: stable retroviral expression in 3T3-L1 cells
[10] = Ccdc80-KD cells, end of differentiation, microarray

Molecule: CC(C)Cn1c(=O)n(C)c(=O)c2[nH]cnc21 [IBMX, 3-isobutyl-1-methylxanthine]
- Ccdc80 mRNA levels [1]: significantly reduce

Molecule: insulin
- Ccdc80 mRNA levels [1]: significantly reduce

Molecule: N#CC(=C(/N)Sc1ccccc1N)/C(C#N)=C(\N)Sc1ccccc1N [U0126]
- reversal of inhibited adipogenesis phenotype ([2]; Ccdc80-KD cells, 1 or 10 μM): no reversal of phenotype
- adipogenesis of control cells ([2]; control cells, treatment during clonal expansion): inhibited adipogenesis

B1: Ccdc80 shRNA: short hairpin RNA against mouse Ccdc80 (position 2015-2037), encoded by SEQ ID NO: 3, expressed from a retroviral vector (nucleic acid)
chain: UGCUGUUGACAGUGAGCGCCCUGAGAAGGAGAAGAAGAAAUAGUGAAGCCACAGAUGUAUUUCUUCUUCUCCUUCUCAGGUUGCCUACUGCCUCGGA
- reduction of the expression of Ccdc80 [3]: 40-50%
- expression of GLUT1 ([4]; Ccdc80-KD cells): unchanged
- expression of GLUT4 ([4]; Ccdc80-KD cells): decreased
- expression of C/EBPα and PPARγ [4, 10]: significantly decreased
- expression of KLF5 and TCF4 [4, 10]: significantly increased
- expression of genes involved in lipid metabolism (aP2, CD36, DGAT1/2, LIPIN1, LPL and SCD1/2) [4, 10]: impaired
- magnitude of induction of aP2, C/EBPα and PPARγ during clonal expansion ([4]; Ccdc80-KD cells, real-time PCR, maintained throughout terminal differentiation): severely attenuated
- expression of common mediators of the insulin signaling pathway ([4]; control vs knockdown cells): no obvious difference
- ability to differentiate into adipocytes (oil red O staining) ([2]; knockdown cell line, end of the differentiation protocol): reduced oil red O staining
- secretion of Ccdc80 protein [5]: markedly blunted the secretion
- TOPFLASH activity ([6]; growth arrest (T=0)): similar
- TOPFLASH activity ([6]; throughout clonal expansion (24, 48 and 96 hr after induction)): significantly more elevated
- repression of Cyclin D1 mRNA levels by adipogenic inducers during clonal expansion ([7]; 3T3-L1, change from growth arrest to clonal expansion, adenovirus at MOI 2000): severely compromised
- expression of β-catenin signaling mediators (APC, β-catenin, Dvl-1, Frizzled-1, GSK3 A, LRP5/6 and Wnt10b) ([7]; Ccdc80-KD cells during differentiation): Only very little changes
- TCF4 mRNA levels ([7]; Ccdc80-KD cells, after terminal differentiation): increased
- expression of LEF1 ([7]; Ccdc80-KD cells, following clonal expansion): down-regulation
- insulin-stimulated phosphorylation of Akt and ERK1/2 ([8]; 10 nM insulin for 10 min): unaffected
- basal phosphorylation of ERK1/2 ([8]; no insulin): elevated
- proliferation of pre-adipocyte [9]: increased
